Test [1] addresses gHgL antigen protein of EB virus (EB virus (M81 strain)). Briefly: BLI (Octet), AMMO1 on protein A sensor, antigen (row label gHgL) in solution 3.125-200 nM, 1:1 fit. (Biolayer interferometry detects binding as a change in optical thickness at a sensor tip.)
Test [2] concerns the target gHgL-I53-50A1 subunit (EB virus (M81 strain) for the gH and gL parts). Briefly: BLI (Octet), AMMO1 on protein A sensor, antigen (row label gHgL-I53-50A1) in solution 3.125-200 nM, 1:1 fit.
Test [3] concerns the target gHgL-I53-50 NP self-assembled nanoparticle (EB virus (M81 strain) for the gH and gL parts). Briefly: BLI (Octet), AMMO1 on protein A sensor, antigen (row label gHgL-I53-50 NP) in solution 3.125-200 nM, 1:1 fit.

The record followed here is US20240309050A1.

The Kd is the equilibrium constant for the complex coming apart. A high value points to weaker binding. For neutralizing antibody AMMO1, the values for the Kd in test [1], in test [2] and in test [3] were 0.432 nM, 0.242 nM and 0.0339 nM, respectively.
